# Patent publication US20070105779A1, “Isolated, ssx-2 and ssx-2 related peptides useful as hla binders and ctl epitopes, and uses thereof” (priority 2002, published 2007)
# Target: HLA-A2
# Test: functional competition vs tyrosinase 368-376 on T2 cells, readout lysis by CTL LAU 156/34; 50% inhibition
row,Binder,IC50 [nM]
1,AAAPKIFYA (modifications not checked) [… (SEQ ID NO: 1)],20
2,AAAAKIFYA (modifications not checked) [… (SEQ ID NO: 3)],133
3,AAGPKIFYA (modifications not checked) [… (SEQ ID NO: 2)],286
4,AAAPAIFYA (modifications not checked) [… (SEQ ID NO: 4)],22
5,AAAPKAFYA (modifications not checked) [… (SEQ ID NO: 5)],200

# Target: HLA-A2
# Test: functional competition vs tyrosinase 368-376 on T2 cells; relative to SEQ ID NO: 17
row,Binder,Relative binding
1,AAAPKIFYA (modifications not checked) [… (SEQ ID NO: 1)],10
2,AAAAKIFYA (modifications not checked) [… (SEQ ID NO: 3)],1.5
3,AAGPKIFYA (modifications not checked) [… (SEQ ID NO: 2)],0.7
4,AAAPAIFYA (modifications not checked) [… (SEQ ID NO: 4)],9
5,AAAPKAFYA (modifications not checked) [… (SEQ ID NO: 5)],1

# Target: HLA-A2
# Test: functional competition vs tyrosinase 368-376 on T2 cells, readout lysis by CTL LAU 156/34; relative to SEQ ID NO: 1
row,Binder,Relative binding
1,AAAPKIFYA (modifications not checked) [… (SEQ ID NO: 1)],1
2,AAAAKIFYA (modifications not checked) [… (SEQ ID NO: 3)],0.16
3,AAGPKIFYA (modifications not checked) [… (SEQ ID NO: 2)],0.07
4,AAAPAIFYA (modifications not checked) [… (SEQ ID NO: 4)],0.9
5,AAAPKAFYA (modifications not checked) [… (SEQ ID NO: 5)],0.1
